Data on 84 variants can be found in the RNAGym collection of RNA variant scans (doi:10.1073/pnas.2313332121).

B1: TPR t1 (parent)
chain: GACCAAUCUGCCCUCAGAGCUCGAGAACAUCUUCGGAUGCAGAGGAGGCAGGCUUCGGUGGCGCGAUAGCGCCAACGUCCUCAACCUCCAAUGCAUCCCACCACAUGAUGAUGCCUGAAGAGCCUUGGUUUUUUG

The data set covers variants of B1. The data set is described as follows: polymerase ribozyme fitness, log enrichment relative to wild type (log ratio); higher = more active; in vitro selection for triplet polymerase activity. In short, it runs like this: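 A single round of triplicate in vitro selection, including frozen incubation at −7 °C, was applied to PCR-built, transcribed mutant libraries of each subunit of a heterodimeric triplet polymerase ribozyme. Illumina sequencing of input and output libraries retained genotypes with ≥10 input reads and ≥1 read per output. Fitness is the base-2 logarithm of genotype enrichment divided by wild-type enrichment, from inverse-variance-weighted replicate averages.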
As to G39U G60A G61A U87C C101U, the “polymerase ribozyme fitness (log ratio)” value was -3.02.

Regarding G39U C88U G107U G113A G122A, the “polymerase ribozyme fitness (log ratio)” value is -6.96. In the case of G39U C89U A118U it was -0.539. With U38A G45U G52A U131G the figure was -3.68; with U38A G57A U116A G120A, -4.1. In the case of G39C A111C G113A it was -3.44; in that of G39A G58A A91U, -2.28. Take G39U C64U A84C: the “polymerase ribozyme fitness (log ratio)” value is -0.386. In the case of G39A C70U it was -0.985; in that of G39C A41U, -2.47; in that of G39A C85U, -1.3.

Regarding U38A C80U C123U, the “polymerase ribozyme fitness (log ratio)” value is -1.04. With U38A G60U C62A C115G the figure was -6.12. With G39U C94G G110A the figure was -1.31; with G39A G48U A50U A84U C85A, -3.82. In the case of A37U U112G it was -1.14; in that of A37U G113U G120A, -2.83. For the variant G39U A46G, the “polymerase ribozyme fitness (log ratio)” value is -1.02.

G39U A43C C49A: the “polymerase ribozyme fitness (log ratio)” value is -3.34. In the case of U38G G113U U125G it was -3.75; in that of A37U G127A, -2.32. With G39A C49G G61A C89U C102G the figure was -7.76; with A37U U131A, -0.895; with G39A A43U C70U C82U G113C U132C, -3.27. In the case of G39U C53U it was -0.876; in that of G39U C53G, 0.711.

For G39A C70G G120C G122U, the “polymerase ribozyme fitness (log ratio)” value is -3.09. On to U38G G71U U92G G93A U112A, for which the “polymerase ribozyme fitness (log ratio)” value is -6.86. In the case of U38C it was -0.501; in that of U38G, -0.73. With U38A the figure was -0.984; with G39A G61A C85U, -0.757. In the case of G39U C73U C114U G120A G127C it was -3.02; in that of U38G G93C A121U U133G, -1.6; in that of U38G G47U C76U C85U U96C U130C, -5.5. In the case of U38A G63C C85U, the “polymerase ribozyme fitness (log ratio)” value was -2.4. With G39A G45C G51C G69U U125G the figure was -2.57; with U38G A46U G110U, -4.8; with U38G C49U, -2.12. With G39C A43U C85A U112A C115U U130C the figure was -4.22. In the case of U38A C53G C88G G120A C123G it was -1.3; in that of U38G C56U A91U U125G U126G G127U, -3.43. For the variant G39U G47A C86U C101A G113U, the “polymerase ribozyme fitness (log ratio)” value is -4.62. In the case of G39U G48A G61C it was -2.96; in that of G39A C82A, -0.962; in that of A37U U38C C53U, -1.6. With G39A C89G C101U the figure was -1.85; with G39A G63C, -1.48. G39A G63U: the “polymerase ribozyme fitness (log ratio)” value is -2.24.

In the case of G39U C40G C64U U106A U109A G120C, the “polymerase ribozyme fitness (log ratio)” value is -5.69. In the case of G39A G71C G93U C104U C123A it was -3.19; in that of U38A C40U C70U C101U C123G, -1.32.

Consider G39A G45A, for which the “polymerase ribozyme fitness (log ratio)” value was -1.29.

In the case of G39C A118C, the “polymerase ribozyme fitness (log ratio)” value is -2.89.

Regarding G39A A50U G63C, the “polymerase ribozyme fitness (log ratio)” value was -2.66. In the case of G39U C40A C62U it was -2.99. In the case of A37U U54A G61C C102A it was -4.66; in that of G39C A91C, -1.16; in that of G39C A91U, -2.41. Take G39A A43U C88G C123A: the “polymerase ribozyme fitness (log ratio)” value was -4.11. With U38A U59G A83C the figure was -1.75; with U38G C56U C79G U81G U96C C104A G110C, -5.98; with U38A C124A, 1.2. Regarding G39A C56A G71C C124A, the “polymerase ribozyme fitness (log ratio)” value is -5.6. With A37U G122A the figure was -1.18. In the case of G39C C40U G69A it was -4.36; in that of G39A C62U A75U A83C U87C, -1.16.

Turning to G39U G52C A95U C115A A118G, the “polymerase ribozyme fitness (log ratio)” value was -3.5. In the case of G39A G71U A83U it was -1.37. With G39A G69A the figure was -3.04; with U38A G60A C79U, -1.22; with G39A A43G G127U, -2.87. In the case of A37U G122A U130C U131A G135U, the “polymerase ribozyme fitness (log ratio)” value is -1.18.

Consider G39C G120A, for which the “polymerase ribozyme fitness (log ratio)” value was found to be 0.0157. G39U G45U C62U U112C: the “polymerase ribozyme fitness (log ratio)” value is -0.882. For G39C C62U G63A, the “polymerase ribozyme fitness (log ratio)” value was -3.77. In the case of G39A U92C, the “polymerase ribozyme fitness (log ratio)” value is -2.34.

For the variant G39A U92A, the “polymerase ribozyme fitness (log ratio)” value is -3.56.

Take G39U C62U C85A A90G A119U C123G U125G: the “polymerase ribozyme fitness (log ratio)” value is -1.09. On to A37U U59A G61C G93U A95G U130G, for which the “polymerase ribozyme fitness (log ratio)” value was -5.82. With U38C U112A the figure was 1.08; with G39U A119G, 0.375; with G39A A41G A83G C94A, -4.25.

As to G39C U59A C104A, the “polymerase ribozyme fitness (log ratio)” value was -2.48.
